Source: doi:10.1101/2024.04.26.590571 (bioRxiv, 2024)

Target: the molecule itself
Experiment: cryo-EM structure

B1: L-protein (BchL homodimer), electron donor component of Rhodobacter sphaeroides DPOR (enzyme)
chain: MSPKDLTIPTGADGEGSVQVHLDEADKITGAKVFAVYGKGGIGKSTTSSNLSAAFSILGKRVLQIGCDPKHDSTFTLTGSLVPTVIDVLKDVDFHPEELRPEDFVFEGFNGVMCVEAGGPPAGTGCGGYVVGQTVKLLKQHHLLDDTDVVIFDVLGDVVCGGFAAPLQHADQAVVVTANDFDSIYAMNRIIAAVQAKSKNYKVRLAGCVANRSRATDEVDRFCKETNFRRLAHMPDLDAIRRSRLKKKTLFEMDEDQDVLAARAEYIRLAESLWRGLDPIDPHSLPDRDIFELLGFD
- stoichiometry N: 2
